From PMC8761896 (2021)

B1: VRC01gl Fab with comL ('VQ' insertion at 103aL and 103bL, L104VL, E105DL) (Fab, V domains shown)
VH: not shown
VL: EIVLTQSPATLSLSPGERATLSCRASQSVSSYLAWYQQKPGQAPRLLIYDASNRATGIPARFSGSGSGTDFTLTISSLEPEDFAVYYCQQYEFFGQGTKVQVDI
B2: germline reverted VRC01 (VRC01gl) Fab (Fab, V domains shown)
VH: not shown
VL: EIVLTQSPATLSLSPGERATLSCRASQSVSSYLAWYQQKPGQAPRLLIYDASNRATGIPARFSGSGSGTDFTLTISSLEPEDFAVYYCQQYEFFGQGTKLEIK

What was measured:
eOD-GT6 [1] = assay: SPR
eOD-GT6 [2] = assay: SPR; remark: listed apart in the source

Row | Binder | Kd (eOD-GT6 [1]) [nM] | koff (eOD-GT6 [2]) [s⁻¹]
1 | B1 | 16.4 | 0.000642
2 | B2 | 16.2 | 0.00073
